# In patent publication WO2024019110A1 (dated 2024):
# B1: recombinant Fab protein of antibody No. 2 (Fab, V domains shown)
# VH: EVQLVESGGGVVQPGRSLRLSCAASGFKFSKFAMHWVRQAPGKGPEWVAVISYDGNQYHSADSVKGRFTISRDNSFNTLYLQMNSLGPEDTAVYYCARDGPDTSGYYANIYFDFWGQGTLVTVSS
# VL: QSVLTQPPSVSGAPGQRVTISCTGSSSNIGAGYDVHWYQQLPGRAPKLLIFDNNNRPSGVPDRFSGSKSGTSASLAITGLQTEDEAYYYCQSYDNSLILAVFGGGTKVTVL
# B2: recombinant Fab protein of antibody No. 6 (Fab, V domains shown)
# VH: QVQLVQSGPEVKKPGTSVKVSCKASGFTFYYSAVQWVRQARGQRLEWLGWMAVGSGKANYAQKFQERLTLTRDMSTSTAYMELSSLRSEDTAVYYCAAPNCTGGSCYDGFNLWGQGTVVTVSS
# VL: EIVLTQSPGTLSLSPGDRAILSCRASQTVNSNYLAWYQQKPGQAPRLLIYGTSSRATGIPDRFSGSGSGTDFTLTISRLEPEDFAVYYCQQYGSSPWLFGQGTKVEIK
# B3: recombinant Fab protein of antibody No. 7 (Fab, V domains shown)
# VH: EVQLLESGGGLVQPGGSLRLSCAASGFTFSRYALSWVRQAPGKGLEWVSAISGAAITTYYADSVKGRFTISRDDSRNTLFMQMDSLRAEDTAVYYCAKGDYYDSSGYLAEYFPHWGQGTLVTVSS
# VL: SYELTQPPSVSVSPGQTARITCFADALPKQHAYWYQQKAGQAPVLVIFKDTERPSGIPKRFSGSRSGATVTLTISGVQAEDEADYYCQSTDISGVLFGGGTKLTVL
# B4: recombinant Fab protein of antibody No. 5 (Fab, V domains shown)
# VH: EVQLVESGGGLVQPGGSLRLSCAASGFTFYSYWMTWVRQAPGKGLEWVANIKHDESESHYVDSVRGRFTISRDNAKNSVYLQMKGLRAEDTAVYYCARDGGYNILTAYYHAPSYWGQGTLVTVSS
# VL: QSALTQPASVSGSPGQSITISCTGTSSDVGGYNFVSWYRQYPGKAPQLMIYDVSRRPSGDSDRFSGSKSGNTASLTISGLQAEDEAEYHCSSYTGRSPYVVFGGGTKVTVL
# Target: Delta strain RBD, biotinylated (SARS-CoV-2 (Delta strain), UniProt P0DTC2 331-529)
# Assay: BLI (Octet), biotinylated RBD on streptavidin biosensor, Fab in solution
row,Binder,Kd [nM]
1,B1,≤ 100
2,B2,≤ 100
3,B3,≤ 100
4,B4,≤ 100

# Target: Omicron strain (BA.1) RBD, biotinylated (SARS-CoV-2 (Omicron strain BA.1), UniProt P0DTC2 331-529)
# Assay: as above
row,Binder,Kd [nM]
1,B1,≤ 100
2,B2,≤ 100
3,B3,≤ 100
4,B4,≤ 100

# Target: Omicron strain (BA.2) RBD, biotinylated (SARS-CoV-2 (Omicron strain BA.2), UniProt P0DTC2 331-529)
# Assay: as above
row,Binder,Kd [nM]
1,B1,≤ 100
2,B2,≤ 100
3,B3,≤ 100
4,B4,≤ 100
